According to the supplement of paper PMC10065799, “High-throughput profiling of sequence recognition by tyrosine kinases and SH2 domains using bacterial peptide display” (eLife, 2023):
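Further: 11-residue human phosphosite peptides and single-mutation variants displayed on the E. coli surface, counted by deep sequencing, each peptide's frequency after selection divided by its frequency in the unselected input library; frequency after pTyr selection over input frequency; kinase dosed for 20-30% of maximal phosphorylation in three min.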

Each sequence was assayed against Hck (UniProt P08631) (assay: phosphorylation enrichment, bacterial display (enrichment ratio); higher = better substrate or ligand; peptides without Tyr show the background).
Sequence of Hck (P08631 whole entry, looked up): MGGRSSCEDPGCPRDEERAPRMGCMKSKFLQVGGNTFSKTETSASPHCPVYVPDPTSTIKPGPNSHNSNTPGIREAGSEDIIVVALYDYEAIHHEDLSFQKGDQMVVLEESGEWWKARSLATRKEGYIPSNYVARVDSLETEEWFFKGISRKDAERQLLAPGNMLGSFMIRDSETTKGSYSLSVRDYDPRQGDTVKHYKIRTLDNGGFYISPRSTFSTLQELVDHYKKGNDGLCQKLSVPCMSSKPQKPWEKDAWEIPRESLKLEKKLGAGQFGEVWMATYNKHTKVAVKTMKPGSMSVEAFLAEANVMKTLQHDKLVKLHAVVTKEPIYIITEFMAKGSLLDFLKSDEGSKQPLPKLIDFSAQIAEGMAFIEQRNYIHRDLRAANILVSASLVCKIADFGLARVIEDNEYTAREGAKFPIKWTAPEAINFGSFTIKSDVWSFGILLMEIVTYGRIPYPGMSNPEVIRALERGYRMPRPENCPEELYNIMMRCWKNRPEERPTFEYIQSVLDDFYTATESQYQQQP
With FFRKFYNKSED [RYR1_Y4864] the phosphorylation enrichment was 0.41.
Sequence EALDFYGEVKT [PTEN_Y155_R159K] has a phosphorylation enrichment of 1.15.
Sequence CTTNHYNFMCN [TP53_Y234_I232N_YF] has a phosphorylation enrichment of 0.424.
Sequence PMWHPYKADVT [TP53TG5_Y255_V257A] has a phosphorylation enrichment of 0.615.
In the case of GRSTCYWPRPR [GAGE12J_Y10_Y9C], the phosphorylation enrichment is reported as 0.557.
AKKVFYVIETR [SHH_Y253] showed a phosphorylation enrichment of 0.422.
With FLEEEYVKAVG [TF_Y674_G671E_YF] the phosphorylation enrichment was 0.517.
RSSKTYLKTRS [LPL_Y329_M328T] showed a phosphorylation enrichment of 0.706.
For TNIKRYHIAKG [HARS1_Y150_V155G], the phosphorylation enrichment was 0.367.
Sequence QNTADYYDLYG [PTPN11_Y62_G60A] has a phosphorylation enrichment of 3.94.
MGIMLYGVDSR [PKD1_Y3143_V3138M] showed a phosphorylation enrichment of 0.55.
Work on TEALFYTDDTA [ADPRS_Y75_YF] yielded a phosphorylation enrichment of 0.602.
In the case of VRVQLYDPDYM [CYP4A22_Y100], the phosphorylation enrichment is reported as 0.807.
In the case of HFPDVYAWEQL [ALX3_Y181_R183W_YF], the phosphorylation enrichment is reported as 3.06.
In the case of RLLRGYDQYAY [HLA-B_Y137_H137Y], the phosphorylation enrichment is reported as 0.575.
SSTAMYSAPGR [PSMB1_Y8] gave a phosphorylation enrichment of 2.28.
Work on WNEVGYDDIGG [VCP_Y203_L198W] yielded a phosphorylation enrichment of 0.538.
QNTGFYFDLFG [PTPN11_Y62_D61Y_YF] gave a phosphorylation enrichment of 0.742.
With QTLEAYIRCNK [SPAST_Y604_W607C] the phosphorylation enrichment was 0.951.
For TTPFNYSFIFK [RAB14_Y8_A4T_YF], the phosphorylation enrichment was 0.695.
In the case of SQSPHYFRSGQ [GPATCH8_Y1038_R1043Q], the phosphorylation enrichment is reported as 0.325.
KSPDSYQKILP [ATM_Y1415_L1420P] showed a phosphorylation enrichment of 0.36.
For ERLWVYGMSSS [F8_Y1728_D1727V], the phosphorylation enrichment was 0.574.
In the case of EQLRAYLEGLC [HLA-C_Y183_T187L], the phosphorylation enrichment is reported as 0.73.
TIQDAYMHITS [ADCY10_Y318_A313T] showed a phosphorylation enrichment of 0.496.
SVTCTYSPALK [TP53_Y126_N131K] was tested, and the phosphorylation enrichment was 0.498.
GGSTYYIDTNA [ACTL6A_Y69_P66S] gave a phosphorylation enrichment of 0.602.
FLTQHYDAIPQ [ANG_Y38_K41I] was tested, and the phosphorylation enrichment was 2.88.
For DSNPIYSQIWS [FCRL3_Y662], the phosphorylation enrichment was 12.

Each sequence was assayed against Jak2 (UniProt O60674) in the same assay as above.
Sequence of Jak2 (O60674 whole entry, looked up): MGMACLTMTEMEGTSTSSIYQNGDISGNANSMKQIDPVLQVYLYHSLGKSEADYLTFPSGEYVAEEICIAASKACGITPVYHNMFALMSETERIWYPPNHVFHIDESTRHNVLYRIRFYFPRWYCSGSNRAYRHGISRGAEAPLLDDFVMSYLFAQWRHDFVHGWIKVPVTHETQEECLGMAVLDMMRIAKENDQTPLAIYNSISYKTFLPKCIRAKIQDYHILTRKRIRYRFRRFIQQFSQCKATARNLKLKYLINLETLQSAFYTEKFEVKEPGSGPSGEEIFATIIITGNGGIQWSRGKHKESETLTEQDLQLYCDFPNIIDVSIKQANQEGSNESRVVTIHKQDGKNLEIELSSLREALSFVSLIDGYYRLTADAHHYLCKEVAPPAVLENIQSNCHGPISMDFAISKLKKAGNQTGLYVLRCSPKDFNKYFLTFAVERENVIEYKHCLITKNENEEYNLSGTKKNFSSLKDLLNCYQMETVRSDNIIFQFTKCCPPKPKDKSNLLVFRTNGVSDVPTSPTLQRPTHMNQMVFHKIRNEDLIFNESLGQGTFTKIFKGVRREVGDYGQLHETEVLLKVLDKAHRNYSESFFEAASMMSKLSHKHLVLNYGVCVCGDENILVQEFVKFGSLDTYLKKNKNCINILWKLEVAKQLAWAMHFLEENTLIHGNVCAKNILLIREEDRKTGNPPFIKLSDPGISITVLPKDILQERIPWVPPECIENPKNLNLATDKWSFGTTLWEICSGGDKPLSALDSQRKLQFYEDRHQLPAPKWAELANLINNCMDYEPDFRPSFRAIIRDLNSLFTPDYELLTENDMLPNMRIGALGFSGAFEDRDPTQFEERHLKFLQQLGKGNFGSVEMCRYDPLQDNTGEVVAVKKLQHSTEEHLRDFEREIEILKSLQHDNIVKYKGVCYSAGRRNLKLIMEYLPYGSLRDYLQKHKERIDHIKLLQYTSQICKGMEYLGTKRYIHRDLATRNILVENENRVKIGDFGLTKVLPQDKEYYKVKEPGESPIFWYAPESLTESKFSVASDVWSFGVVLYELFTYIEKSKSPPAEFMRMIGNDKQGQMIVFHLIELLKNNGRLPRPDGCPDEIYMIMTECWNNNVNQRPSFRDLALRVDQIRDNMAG
FFRKFYNKSED [RYR1_Y4864] showed a phosphorylation enrichment of 0.622.
Work on EALDFYGEVKT [PTEN_Y155_R159K] yielded a phosphorylation enrichment of 1.6.
In the case of CTTNHYNFMCN [TP53_Y234_I232N_YF], the phosphorylation enrichment is reported as 0.511.
PMWHPYKADVT [TP53TG5_Y255_V257A] gave a phosphorylation enrichment of 0.911.
GRSTCYWPRPR [GAGE12J_Y10_Y9C] gave a phosphorylation enrichment of 0.885.
In the case of AKKVFYVIETR [SHH_Y253], the phosphorylation enrichment is reported as 1.01.
FLEEEYVKAVG [TF_Y674_G671E_YF] showed a phosphorylation enrichment of 1.18.
For RSSKTYLKTRS [LPL_Y329_M328T], the phosphorylation enrichment was 0.596.
With TNIKRYHIAKG [HARS1_Y150_V155G] the phosphorylation enrichment was 0.368.
With QNTADYYDLYG [PTPN11_Y62_G60A] the phosphorylation enrichment was 2.14.
Work on MGIMLYGVDSR [PKD1_Y3143_V3138M] yielded a phosphorylation enrichment of 1.03.
For TEALFYTDDTA [ADPRS_Y75_YF], the phosphorylation enrichment was 1.17.
VRVQLYDPDYM [CYP4A22_Y100] was tested, and the phosphorylation enrichment was 1.15.
In the case of HFPDVYAWEQL [ALX3_Y181_R183W_YF], the phosphorylation enrichment is reported as 0.893.
For RLLRGYDQYAY [HLA-B_Y137_H137Y], the phosphorylation enrichment was 0.844.
SSTAMYSAPGR [PSMB1_Y8] gave a phosphorylation enrichment of 0.58.
Sequence WNEVGYDDIGG [VCP_Y203_L198W] has a phosphorylation enrichment of 1.14.
Sequence QNTGFYFDLFG [PTPN11_Y62_D61Y_YF] has a phosphorylation enrichment of 2.66.
QTLEAYIRCNK [SPAST_Y604_W607C] gave a phosphorylation enrichment of 1.44.
TTPFNYSFIFK [RAB14_Y8_A4T_YF] gave a phosphorylation enrichment of 0.941.
In the case of SQSPHYFRSGQ [GPATCH8_Y1038_R1043Q], the phosphorylation enrichment is reported as 0.538.
Sequence KSPDSYQKILP [ATM_Y1415_L1420P] has a phosphorylation enrichment of 0.519.
With ERLWVYGMSSS [F8_Y1728_D1727V] the phosphorylation enrichment was 1.18.
In the case of EQLRAYLEGLC [HLA-C_Y183_T187L], the phosphorylation enrichment is reported as 1.45.
TIQDAYMHITS [ADCY10_Y318_A313T] was tested, and the phosphorylation enrichment was 0.676.
In the case of SVTCTYSPALK [TP53_Y126_N131K], the phosphorylation enrichment is reported as 0.866.
GGSTYYIDTNA [ACTL6A_Y69_P66S] gave a phosphorylation enrichment of 0.668.
Work on FLTQHYDAIPQ [ANG_Y38_K41I] yielded a phosphorylation enrichment of 0.608.
Sequence DSNPIYSQIWS [FCRL3_Y662] has a phosphorylation enrichment of 1.18.

These sequences were tested against MERTK (UniProt Q12866) in the same assay as above.
Sequence of MERTK (Q12866 whole entry, looked up): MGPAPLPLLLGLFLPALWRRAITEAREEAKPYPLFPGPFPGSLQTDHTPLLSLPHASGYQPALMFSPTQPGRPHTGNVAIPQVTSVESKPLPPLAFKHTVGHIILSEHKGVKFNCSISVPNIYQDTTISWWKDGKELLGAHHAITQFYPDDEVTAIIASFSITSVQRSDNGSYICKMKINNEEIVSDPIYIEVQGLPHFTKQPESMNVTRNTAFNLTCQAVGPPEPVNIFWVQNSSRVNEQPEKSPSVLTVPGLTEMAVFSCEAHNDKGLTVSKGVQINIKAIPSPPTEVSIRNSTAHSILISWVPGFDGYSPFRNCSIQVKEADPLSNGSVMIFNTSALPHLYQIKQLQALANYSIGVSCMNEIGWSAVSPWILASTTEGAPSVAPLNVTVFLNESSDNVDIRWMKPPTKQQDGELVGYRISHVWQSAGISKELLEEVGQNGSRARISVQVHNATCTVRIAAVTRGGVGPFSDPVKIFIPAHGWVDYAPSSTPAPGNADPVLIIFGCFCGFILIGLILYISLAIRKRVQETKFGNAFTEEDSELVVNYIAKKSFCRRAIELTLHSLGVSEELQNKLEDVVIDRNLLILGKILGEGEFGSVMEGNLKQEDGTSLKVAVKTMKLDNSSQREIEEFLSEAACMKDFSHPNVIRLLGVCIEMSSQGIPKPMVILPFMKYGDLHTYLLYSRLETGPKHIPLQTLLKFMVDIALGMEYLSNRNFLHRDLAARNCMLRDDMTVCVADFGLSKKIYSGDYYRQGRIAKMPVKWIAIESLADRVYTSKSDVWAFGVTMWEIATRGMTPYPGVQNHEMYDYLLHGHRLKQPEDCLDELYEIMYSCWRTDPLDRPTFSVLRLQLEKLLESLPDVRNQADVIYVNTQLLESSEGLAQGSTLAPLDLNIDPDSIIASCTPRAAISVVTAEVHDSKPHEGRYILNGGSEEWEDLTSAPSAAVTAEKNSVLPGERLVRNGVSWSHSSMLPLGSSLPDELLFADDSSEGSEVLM
Work on FFRKFYNKSED [RYR1_Y4864] yielded a phosphorylation enrichment of 0.424.
In the case of EALDFYGEVKT [PTEN_Y155_R159K], the phosphorylation enrichment is reported as 0.409.
Work on CTTNHYNFMCN [TP53_Y234_I232N_YF] yielded a phosphorylation enrichment of 0.437.
PMWHPYKADVT [TP53TG5_Y255_V257A] was tested, and the phosphorylation enrichment was 0.428.
GRSTCYWPRPR [GAGE12J_Y10_Y9C] showed a phosphorylation enrichment of 0.567.
With AKKVFYVIETR [SHH_Y253] the phosphorylation enrichment was 0.361.
With FLEEEYVKAVG [TF_Y674_G671E_YF] the phosphorylation enrichment was 0.424.
For RSSKTYLKTRS [LPL_Y329_M328T], the phosphorylation enrichment was 0.985.
Sequence TNIKRYHIAKG [HARS1_Y150_V155G] has a phosphorylation enrichment of 0.405.
QNTADYYDLYG [PTPN11_Y62_G60A] gave a phosphorylation enrichment of 1.68.
MGIMLYGVDSR [PKD1_Y3143_V3138M] was tested, and the phosphorylation enrichment was 0.475.
TEALFYTDDTA [ADPRS_Y75_YF] was tested, and the phosphorylation enrichment was 0.541.
VRVQLYDPDYM [CYP4A22_Y100] gave a phosphorylation enrichment of 0.887.
For HFPDVYAWEQL [ALX3_Y181_R183W_YF], the phosphorylation enrichment was 2.25.
For RLLRGYDQYAY [HLA-B_Y137_H137Y], the phosphorylation enrichment was 0.596.
SSTAMYSAPGR [PSMB1_Y8] showed a phosphorylation enrichment of 1.66.
WNEVGYDDIGG [VCP_Y203_L198W] gave a phosphorylation enrichment of 0.406.
QNTGFYFDLFG [PTPN11_Y62_D61Y_YF] gave a phosphorylation enrichment of 2.75.
Sequence QTLEAYIRCNK [SPAST_Y604_W607C] has a phosphorylation enrichment of 0.624.
Sequence TTPFNYSFIFK [RAB14_Y8_A4T_YF] has a phosphorylation enrichment of 1.93.
SQSPHYFRSGQ [GPATCH8_Y1038_R1043Q] was tested, and the phosphorylation enrichment was 0.419.
KSPDSYQKILP [ATM_Y1415_L1420P] was tested, and the phosphorylation enrichment was 0.414.
Work on ERLWVYGMSSS [F8_Y1728_D1727V] yielded a phosphorylation enrichment of 0.395.
Sequence EQLRAYLEGLC [HLA-C_Y183_T187L] has a phosphorylation enrichment of 0.615.
TIQDAYMHITS [ADCY10_Y318_A313T] showed a phosphorylation enrichment of 0.529.
SVTCTYSPALK [TP53_Y126_N131K] gave a phosphorylation enrichment of 0.405.
Work on GGSTYYIDTNA [ACTL6A_Y69_P66S] yielded a phosphorylation enrichment of 1.01.
FLTQHYDAIPQ [ANG_Y38_K41I] showed a phosphorylation enrichment of 2.46.
DSNPIYSQIWS [FCRL3_Y662] was tested, and the phosphorylation enrichment was 11.8.

What follows are sequences tested on c-Abl (mouse) in the same assay as above.
Work on FFRKFYNKSED [RYR1_Y4864] yielded a phosphorylation enrichment of 0.421.
EALDFYGEVKT [PTEN_Y155_R159K] showed a phosphorylation enrichment of 0.844.
In the case of CTTNHYNFMCN [TP53_Y234_I232N_YF], the phosphorylation enrichment is reported as 0.489.
With PMWHPYKADVT [TP53TG5_Y255_V257A] the phosphorylation enrichment was 0.94.
With GRSTCYWPRPR [GAGE12J_Y10_Y9C] the phosphorylation enrichment was 0.697.
With AKKVFYVIETR [SHH_Y253] the phosphorylation enrichment was 0.627.
FLEEEYVKAVG [TF_Y674_G671E_YF] was tested, and the phosphorylation enrichment was 0.679.
RSSKTYLKTRS [LPL_Y329_M328T] showed a phosphorylation enrichment of 0.853.
Work on TNIKRYHIAKG [HARS1_Y150_V155G] yielded a phosphorylation enrichment of 0.503.
For QNTADYYDLYG [PTPN11_Y62_G60A], the phosphorylation enrichment was 0.722.
With MGIMLYGVDSR [PKD1_Y3143_V3138M] the phosphorylation enrichment was 0.745.
TEALFYTDDTA [ADPRS_Y75_YF] was tested, and the phosphorylation enrichment was 0.787.
In the case of VRVQLYDPDYM [CYP4A22_Y100], the phosphorylation enrichment is reported as 0.79.
HFPDVYAWEQL [ALX3_Y181_R183W_YF] showed a phosphorylation enrichment of 0.632.
Sequence RLLRGYDQYAY [HLA-B_Y137_H137Y] has a phosphorylation enrichment of 0.659.
Sequence SSTAMYSAPGR [PSMB1_Y8] has a phosphorylation enrichment of 6.02.
WNEVGYDDIGG [VCP_Y203_L198W] gave a phosphorylation enrichment of 0.737.
Work on QNTGFYFDLFG [PTPN11_Y62_D61Y_YF] yielded a phosphorylation enrichment of 1.36.
QTLEAYIRCNK [SPAST_Y604_W607C] gave a phosphorylation enrichment of 0.887.
In the case of TTPFNYSFIFK [RAB14_Y8_A4T_YF], the phosphorylation enrichment is reported as 0.86.
SQSPHYFRSGQ [GPATCH8_Y1038_R1043Q] was tested, and the phosphorylation enrichment was 0.456.
Sequence KSPDSYQKILP [ATM_Y1415_L1420P] has a phosphorylation enrichment of 0.431.
In the case of ERLWVYGMSSS [F8_Y1728_D1727V], the phosphorylation enrichment is reported as 0.691.
EQLRAYLEGLC [HLA-C_Y183_T187L] gave a phosphorylation enrichment of 1.13.
TIQDAYMHITS [ADCY10_Y318_A313T] gave a phosphorylation enrichment of 0.525.
In the case of SVTCTYSPALK [TP53_Y126_N131K], the phosphorylation enrichment is reported as 0.839.
GGSTYYIDTNA [ACTL6A_Y69_P66S] showed a phosphorylation enrichment of 0.654.
Work on FLTQHYDAIPQ [ANG_Y38_K41I] yielded a phosphorylation enrichment of 0.611.
DSNPIYSQIWS [FCRL3_Y662] was tested, and the phosphorylation enrichment was 14.1.
